Values of other authors in doi:10.1101/2022.06.23.497301.

Target: Asp96 (UniProt position 109, PLLLLDLALLV)
Details: resting (ground, closed) state of bacteriorhodopsin

Q: For “Bacteriorhodopsin (Halobacterium salinarum)”, which pKa is on record?
A: Its pKa is “∼12.0”.
